The results in this text go back to patent US9127040B2, “Regulation of sodium channels by PLUNC proteins” (The University of North Carolina at Chapel Hill, priority 2011, dated 2015).

Ends that are not written are not given here.

Common to all, as to type: cell-based
In one assay the target is T1, ENaC (Homo sapiens, UniProt P37088+P51168+P51170).
T1 construct: measured the transepithelial voltage under thin film conditions in human bronchial epithelial cultures; endogenous in cells; host or cells: primary human bronchial epithelial cultures (normal or CF donors)
T1 sequence (P37088 1-669): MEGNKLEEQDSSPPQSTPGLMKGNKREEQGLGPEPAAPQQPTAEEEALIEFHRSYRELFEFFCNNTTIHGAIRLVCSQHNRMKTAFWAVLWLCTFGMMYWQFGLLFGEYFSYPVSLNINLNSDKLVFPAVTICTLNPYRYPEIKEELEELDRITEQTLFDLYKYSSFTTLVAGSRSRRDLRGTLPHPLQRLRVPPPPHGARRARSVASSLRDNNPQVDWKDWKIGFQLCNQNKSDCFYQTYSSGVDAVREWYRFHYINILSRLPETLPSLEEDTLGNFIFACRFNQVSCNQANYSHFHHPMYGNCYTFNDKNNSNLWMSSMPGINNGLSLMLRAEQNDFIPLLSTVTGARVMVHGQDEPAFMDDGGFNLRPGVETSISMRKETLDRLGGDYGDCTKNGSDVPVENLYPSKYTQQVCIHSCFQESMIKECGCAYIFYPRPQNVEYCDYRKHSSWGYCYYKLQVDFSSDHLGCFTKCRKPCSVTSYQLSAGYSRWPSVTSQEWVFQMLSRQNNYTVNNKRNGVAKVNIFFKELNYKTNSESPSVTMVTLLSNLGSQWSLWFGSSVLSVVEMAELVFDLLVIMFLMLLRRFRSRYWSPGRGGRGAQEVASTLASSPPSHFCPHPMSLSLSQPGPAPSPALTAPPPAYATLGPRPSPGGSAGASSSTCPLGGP
T1 sequence (P51168 1-640): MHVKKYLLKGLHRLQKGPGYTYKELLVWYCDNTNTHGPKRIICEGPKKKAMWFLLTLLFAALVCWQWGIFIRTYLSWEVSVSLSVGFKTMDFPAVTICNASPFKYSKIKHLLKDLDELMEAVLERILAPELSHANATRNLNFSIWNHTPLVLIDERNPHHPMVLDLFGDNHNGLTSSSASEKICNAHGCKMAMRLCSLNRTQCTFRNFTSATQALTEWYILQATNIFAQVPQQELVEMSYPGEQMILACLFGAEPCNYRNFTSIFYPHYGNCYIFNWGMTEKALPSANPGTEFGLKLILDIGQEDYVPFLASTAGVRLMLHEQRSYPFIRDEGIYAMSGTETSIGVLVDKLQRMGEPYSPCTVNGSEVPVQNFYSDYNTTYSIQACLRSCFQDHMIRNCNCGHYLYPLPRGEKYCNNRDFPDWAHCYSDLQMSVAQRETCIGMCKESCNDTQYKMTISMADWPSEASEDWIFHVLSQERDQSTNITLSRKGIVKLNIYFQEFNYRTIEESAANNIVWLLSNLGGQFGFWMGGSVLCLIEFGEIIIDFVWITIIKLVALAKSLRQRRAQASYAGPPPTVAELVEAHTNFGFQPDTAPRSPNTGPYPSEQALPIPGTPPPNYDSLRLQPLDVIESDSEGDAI
T1 sequence (P51170 1-649): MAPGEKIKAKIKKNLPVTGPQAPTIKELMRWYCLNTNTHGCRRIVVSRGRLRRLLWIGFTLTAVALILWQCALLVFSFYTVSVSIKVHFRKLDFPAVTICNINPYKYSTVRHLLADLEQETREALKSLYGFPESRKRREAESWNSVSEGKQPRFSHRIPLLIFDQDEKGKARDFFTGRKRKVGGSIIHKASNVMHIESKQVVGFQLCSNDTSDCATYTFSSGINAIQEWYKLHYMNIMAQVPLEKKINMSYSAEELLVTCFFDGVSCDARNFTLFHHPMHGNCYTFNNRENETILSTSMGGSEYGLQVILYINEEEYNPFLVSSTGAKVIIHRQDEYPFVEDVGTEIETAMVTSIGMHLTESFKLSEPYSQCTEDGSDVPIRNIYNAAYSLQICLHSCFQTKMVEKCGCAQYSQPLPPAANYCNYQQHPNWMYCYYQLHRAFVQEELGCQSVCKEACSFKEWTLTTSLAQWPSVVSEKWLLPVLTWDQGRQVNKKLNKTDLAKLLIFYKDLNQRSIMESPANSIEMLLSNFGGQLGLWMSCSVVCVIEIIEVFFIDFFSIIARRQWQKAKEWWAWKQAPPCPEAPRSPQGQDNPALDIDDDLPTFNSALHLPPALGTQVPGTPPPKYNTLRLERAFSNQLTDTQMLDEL
The assay can be described thus: Thin film amiloride-sensitive transepithelial PD in CF HBECs. The settings on record: 10 μM S18, over 24 h. As for the experimental part: A, airway surface liquid (ASL) height with time in CF HBECs measured by XZ confocal microscopy after apical addition of 20 μl Ringer with rhodamine-dextran. ▪=control; ▴=10 μM S18. Both n=6. B, Thin film amiloride-sensitive transepithelial PD measured in the same cultures as A, with microelectrodes positioned in the ASL and serosal bath. Open bars, control, closed bars, S18, n=6. C, Dose response to S18 vs. ASL height in CF primary human bronchial epithelial cultures (HBECs) measured 8 h after S18 addition. D, Bar graph of 8 h ASL height in CF HBECs. Control (open bars), S18 black bars, aprotinin, gray bars. NE, neutrophil elastase. ANS, activated neutrophil supernatant. All n=6. *p<0.05 different to vehicle. †p<0.05 different to aprotinin.
A single-barreled potential difference-sensing electrode was placed in the airway surface liquid by micromanipulator and used in conjunction with a macroelectrode in the serosal solution to measure transepithelial voltage using a voltmeter (World Precision Instruments). […] Transepithelial resistance was routinely measured using the EVOM system (WPI) as previously described (Tarran et al., J. Gen. Physiol. 127:591 (2006)).

Another assay relates to serine proteases. The assay can be described thus: Endogenous protease activity (BGAR-MCA cleavage) on mucosal surface of human bronchial epithelial cultures. The procedure: For cell-free assays, reactions were carried out in 50 μl Ringer in a 96 well plate format with 100 μM BGAR-MCA. To measure endogenous protease activity in human bronchial epithelial cultures, 30 μl Ringer with 100 μM BGAR-MCA were placed directly onto the mucosal surfaces of human bronchial epithelial cultures grown on 12 mm T-clear inserts and the cultures were assayed in 12 well plates.

For another assay, the target named is T2, CFTR (Homo sapiens, UniProt P13569).
T2 construct: expressed in transfected cells; host or cells: Xenopus oocytes
The assay can be described thus: CFTR activity in Xenopus oocytes co-expressing β2 adrenergic receptor, isoproterenol stimulated. The settings on record: 10 μM isoproterenol.

T2 sequence (P13569 whole entry, species assumed): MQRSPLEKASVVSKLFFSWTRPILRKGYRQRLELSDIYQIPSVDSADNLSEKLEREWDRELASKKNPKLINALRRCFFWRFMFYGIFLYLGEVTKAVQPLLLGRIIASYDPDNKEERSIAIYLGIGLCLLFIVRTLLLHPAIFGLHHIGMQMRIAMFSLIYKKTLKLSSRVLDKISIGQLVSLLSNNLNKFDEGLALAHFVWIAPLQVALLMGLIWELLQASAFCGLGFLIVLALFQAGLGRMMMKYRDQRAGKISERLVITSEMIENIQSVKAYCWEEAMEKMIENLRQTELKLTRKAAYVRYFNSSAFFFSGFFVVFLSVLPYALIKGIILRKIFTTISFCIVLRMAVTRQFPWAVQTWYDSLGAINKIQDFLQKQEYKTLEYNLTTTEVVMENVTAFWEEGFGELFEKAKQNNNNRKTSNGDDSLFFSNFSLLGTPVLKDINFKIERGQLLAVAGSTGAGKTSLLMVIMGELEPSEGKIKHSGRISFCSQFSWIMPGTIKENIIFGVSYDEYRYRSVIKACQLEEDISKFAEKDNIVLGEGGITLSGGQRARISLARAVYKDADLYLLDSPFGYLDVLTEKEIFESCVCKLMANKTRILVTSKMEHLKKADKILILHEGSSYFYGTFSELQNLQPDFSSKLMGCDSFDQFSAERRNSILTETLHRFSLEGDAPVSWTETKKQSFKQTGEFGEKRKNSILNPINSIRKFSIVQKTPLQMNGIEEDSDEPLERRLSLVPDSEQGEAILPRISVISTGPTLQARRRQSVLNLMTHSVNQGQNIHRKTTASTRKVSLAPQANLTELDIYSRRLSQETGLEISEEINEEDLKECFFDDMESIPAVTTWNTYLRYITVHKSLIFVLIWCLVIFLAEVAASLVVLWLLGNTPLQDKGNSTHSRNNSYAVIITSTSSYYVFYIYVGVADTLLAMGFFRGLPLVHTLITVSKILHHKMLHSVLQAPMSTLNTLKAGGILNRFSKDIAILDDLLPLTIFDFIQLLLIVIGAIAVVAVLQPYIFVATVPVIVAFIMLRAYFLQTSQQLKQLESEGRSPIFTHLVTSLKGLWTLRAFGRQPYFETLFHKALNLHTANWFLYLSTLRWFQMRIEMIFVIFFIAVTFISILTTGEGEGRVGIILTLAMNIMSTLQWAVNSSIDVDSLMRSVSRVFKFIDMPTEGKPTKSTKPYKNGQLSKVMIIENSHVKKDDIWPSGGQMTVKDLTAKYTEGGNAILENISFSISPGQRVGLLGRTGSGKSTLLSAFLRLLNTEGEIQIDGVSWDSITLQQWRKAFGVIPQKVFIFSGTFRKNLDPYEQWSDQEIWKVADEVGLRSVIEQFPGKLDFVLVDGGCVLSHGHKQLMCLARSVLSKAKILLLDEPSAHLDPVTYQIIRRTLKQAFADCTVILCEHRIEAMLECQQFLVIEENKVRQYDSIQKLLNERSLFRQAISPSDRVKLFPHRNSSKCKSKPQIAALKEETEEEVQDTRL

Take GGLPVPLDQTLPLNVNPA [S18]: the “amiloride-sensitive PD” value on ENaC is on record as “reduced the amiloride-sensitive PD”.

B1: SPLUNC1: human SPLUNC1 (SEQ ID NO:1), 256 amino acid secreted PLUNC family protein; rSPLUNC1 is the purified V5/6His-tagged recombinant form (protein, listed as Homo sapiens)
chain: MFQTGGLIVFYGLLAQTMAQFGGLPVPLDQTLPLNVNPALPLSPTGLAGSLTNALSNGLLSGGLLGILENLPLLDILKPGGGTSGGLLGGLLGKVTSVIPGLNNIIDIKVTDPQLLELGLVQSPDGHRLYVTIPLGIKLQVNTPLVGASLLRLAVKLDITAEILAVRDKQERIHLVLGDCTHSPGSLQISLLDGLGPLPIQGLLDSLTGILNKVLPELVQGNVCPLVNEVLRGLDITLVHDIVNMLIHGLQFVIKV
modifications: V5/6His tag in recombinant form
notes: rSPLUNC1 is the purified V5/6His-tagged recombinant form
Regarding B1, the “BGAR-MCA cleavage on human bronchial epithelial mucosal surfaces” value with serine proteases was “no significant affect”. Moreover, the CFTR activity result with CFTR (5 ng/ml rSPLUNC1 exposure) and with CFTR (injection of SPLUNC1 cRNA) was “no inhibitory effect on CFTR activity” throughout.
